Legend:
[1] = molecular target: tau aggregates in HEK293 tau biosensor cells (4R repeat domain of tau (K18) with the P301S mutation fused to CFP or YFP, seeded with clarified tau mouse brain homogenate) (UniProt P10636); assay: Halo imaging, colocalization with cytoplasmic tau aggregates (FIG. 5D)
[2] = molecular target: tau aggregates in HEK293 tau biosensor cells (4R repeat domain of tau (K18) with the P301S mutation fused to CFP or YFP, seeded with clarified tau mouse brain homogenate) (UniProt P10636); assay: Halo imaging, colocalization with cytoplasmic tau aggregates, 5 images
[3] = molecular target: tau aggregates in HEK293 tau biosensor cells (4R repeat domain of tau (K18) with the P301S mutation fused to CFP or YFP, seeded with clarified tau mouse brain homogenate) (UniProt P10636); assay: Halo (JF646) imaging; intensity in aggregate over adjacent region, 5 aggregates
[4] = molecular target: tau aggregates in HEK293 tau biosensor cells (4R repeat domain of tau (K18) with the P301S mutation fused to CFP or YFP, seeded with clarified tau mouse brain homogenate) (UniProt P10636); assay: Halo (JF646) imaging; intensity in aggregate over adjacent region, five aggregates
[5] = molecular target: tau aggregates in HEK293 tau biosensor cells (4R repeat domain of tau (K18) with the P301S mutation fused to CFP or YFP, seeded with clarified tau mouse brain homogenate) (UniProt P10636); assay: Halo (JF646) imaging in seeded HEK293 tau biosensor cells; mean Halo intensity in aggregates over that of the compartment

Sequence of tau aggregates in HEK293 tau biosensor cells (4R repeat domain of tau (K18) with the P301S mutation fused to CFP or YFP, seeded with clarified tau mouse brain homogenate) (P10636 561-689 P618S): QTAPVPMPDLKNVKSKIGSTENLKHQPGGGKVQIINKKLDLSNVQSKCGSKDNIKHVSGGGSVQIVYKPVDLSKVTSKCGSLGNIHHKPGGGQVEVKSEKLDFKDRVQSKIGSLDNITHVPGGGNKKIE

| Substance | percentage of cytoplasmic tau aggregates with recruitment [1] [%] | percentage of cytoplasmic tau aggregates positive for the construct [2] [%] | mean enrichment in cytoplasmic tau aggregates [3] | mean enrichment in cytoplasmic tau aggregates [4] | mean enrichment in tau aggregates [5] |
| --- | --- | --- | --- | --- | --- |
| 42-polyserine-halo | > 90 | 96 | 5.46 |  |  |
| Frag_1-Halo (SRRM2 a.a. 2606-2752) |  |  |  | 2.5 |  |
| Frag_2-Halo (SRRM2 a.a. 2458-2752) | > 90 | 98 |  | 4.3 |  |
| Halo tagged 20 serine repeat |  |  | 1.19 |  |  |
| SRRM2_FL-Halo (from UniProt Q9UQ35 1-2748) |  | 62 |  |  | 2.57 |

Reference: patent US20250215059A1
